Data: PMC11189558, “Mutations found in cancer patients compromise DNA binding of the winged helix protein STK19”

Columns and labels:
Test in all cases: EMSA; 20 mM HEPES pH 7.4, 100 mM NaCl, 1 mM MgCl2, 1 mg/ml BSA, 2 mM DTT, 5% glycerol; 30 min on ice; native 5% PAGE in 1X TBE
Conditions in all cases: protein: recombinant; tags: GST cleaved; GPLGS left at N-terminus; blunt
[1] = biological target: STK19 K186E (human, UniProt P49842 31-254, K186E)
[2] = biological target: STK19 R200E/K201E/K203E (human, UniProt P49842 31-254, R200E;K201E;K203E)
[3] = biological target: STK19 R215E/R216E (human, UniProt P49842 31-254, R215E;R216E)

Measured: binding result

Sequence of STK19 K186E (P49842 31-254 K186E): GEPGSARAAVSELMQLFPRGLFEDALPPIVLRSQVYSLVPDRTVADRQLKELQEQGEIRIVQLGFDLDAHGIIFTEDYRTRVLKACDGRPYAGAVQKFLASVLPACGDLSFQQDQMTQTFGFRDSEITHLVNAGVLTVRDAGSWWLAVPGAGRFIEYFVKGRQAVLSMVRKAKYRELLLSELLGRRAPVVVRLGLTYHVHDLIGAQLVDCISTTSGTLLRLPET
Sequence of STK19 R215E/R216E (P49842 31-254 R215E/R216E): as the sequence (P49842 31-254 K186E) above, with E156K, R185E, R186E counted along it
Sequence of STK19 R200E/K201E/K203E (P49842 31-254 R200E/K201E/K203E): as the sequence (P49842 31-254 K186E) above, with E156K, R170E, K171E, K173E counted along it

B1: 59 bp dsDNA (dsDNA)
DNA 1: GAGCTGCCGAATTCTACCAGTGCCTTGCTAGGACATCTTTGCCCACCTGCAGGTTCACC
DNA 2: GGTGAACCTGCAGGTGGGCAAAGATGTCCTAGCAAGGCACTGGTAGAATTCGGCAGCTC
no binding: all assays above
